Experimental findings from patent US20030119027 are described below.

For this data set, the target named is T1, SfiI (Streptomyces fimbriatus) (UniProt O52512).
T1 sequence: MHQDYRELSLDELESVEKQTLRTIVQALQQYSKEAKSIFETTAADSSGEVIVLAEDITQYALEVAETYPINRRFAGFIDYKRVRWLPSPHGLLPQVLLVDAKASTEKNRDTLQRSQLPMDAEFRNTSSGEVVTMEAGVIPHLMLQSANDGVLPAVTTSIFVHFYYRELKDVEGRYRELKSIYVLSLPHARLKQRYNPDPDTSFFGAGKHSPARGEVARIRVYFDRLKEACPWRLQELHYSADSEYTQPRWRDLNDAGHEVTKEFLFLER
Put plainly: cleavage_in_vitro. Conditions: yield of in vitro translation with T7 RNA polymerase; NEBuffer 2, 10 mM MgCl2, 50 C 60 min.

“GGCCNNNNNGGCC (double strand) [SfiI site (Adenovirus-2 DNA)]” registered an activity greater than 33000 units/ml.
